In patent EP4538285A1 (Chineo Medical Technology Co., Ltd., dated 2025):
Residue numbers refer to the chain shown, from its start.

B1: Camrelizumab (antibody, V domains shown)
VH: EVQLVESGGGLVQPGGSLRLSCAASGFTFSSYMMSWVRQAPGKGLEWVATISGGGANTYYPDSVKGRFTISRDNAKNSLYLQMNSLRAEDTAVYYCARQLYYFDYWGQGTTVTVSS
VL: DIQMTQSPSSLSASVGDRVTITCLASQTIGTWLTWYQQKPGKAPKLLIYTATSLADGVPSRFSGSGSGTDFTLTISSLQPEDFATYYCQQVYSIPWTFGGGTKVEIK
B2: Sintilimab (antibody, V domains shown)
VH: QVQLVQSGAEVKKPGSSVKVSCKASGGTFSSYAISWVRQAPGQGLEWMGLIIPMFDTAGYAQKFQGRVAITVDESTSTAYMELSSLRSEDTAVYYCARAEHSSTGTFDYWGQGTLVTVSS
VL: DIQMTQSPSSVSASVGDRVTITCRASQGISSWLAWYQQKPGKAPKLLISAASSLQSGVPSRFSGSGSGTDFTLTISSLQPEDFATYYCQQANHLPFTFGGGTKVEIK
B3: Toripalimab (antibody, V domains shown)
VH: QGQLVQSGAEVKKPGASVKVSCKASGYTFTDYEMHWVRQAPIHGLEWIGVIESETGGTAYNQKFKGRVTITADKSTSTAYMELSSLRSEDTAVYYCAREGITTVATTYYWYFDVWGQGTTVTVSS
VL: DVVMTQSPLSLPVTLGQPASISCRSSQSIVHSNGNTYLEWYLQKPGQSPQLLIYKVSNRFSGVPDRFSGSGSGTDFTLKISRVEAEDVGVYYCFQGSHVPLTFGQGTKLEIKR
B4: Seq No.2-RFc (PD-1 variant SEQ ID NO: 2 fused to rabbit IgG Fc) (Fc fusion)
chain: PGWFLDSPDRPWNPPTFSPALLVVTEGDNATFTCSFSNTSESFVLNWYRMSPSNQTDKLAAFPEDRSQPGQDCRFRVTQLPNGRDFHMSVVRARRNDSGTYLCGAISLSTPVWIKESLRAELRVTERRAEVPTAH
notes: signal peptide 1-20 left out; also called variant 1; not shown: rabbit IgG Fc (RFc) of vector pcDNA3.4-RFc
B5: Seq No.3-RFc (PD-1 variant SEQ ID NO: 3 fused to rabbit IgG Fc) (Fc fusion)
chain: B4 chain with E64F, D65L, R66F, S67N, Q68L
notes: Signal peptide 1-20 left out; also called variant 2; not shown: rabbit IgG Fc (RFc) of vector pcDNA3.4-RFc
B6: Seq No.4-RFc (PD-1 variant SEQ ID NO: 4 fused to rabbit IgG Fc) (Fc fusion)
chain: B4 chain with E64W, D65M, R66F, S67C, Q68F
notes: Signal peptide 1-20 left out; also called variant 3; not shown: rabbit IgG Fc (RFc) of vector pcDNA3.4-RFc
B7: Seq No.5-RFc (PD-1 variant SEQ ID NO: 5 fused to rabbit IgG Fc) (Fc fusion)
chain: B4 chain with R66F, S67R, Q68N, P69C, G70T
notes: Signal peptide 1-20 left out; also called variant 4; not shown: rabbit IgG Fc (RFc) of vector pcDNA3.4-RFc
B8: Seq No.6-RFc (PD-1 variant SEQ ID NO: 6 fused to rabbit IgG Fc) (Fc fusion)
chain: B4 chain with R66F, S67F, Q68T, P69V, G70S
notes: Signal peptide 1-20 left out; also called variant 5; 56#-16; not shown: rabbit IgG Fc (RFc) of vector pcDNA3.4-RFc
B9: Seq No.7-RFc (PD-1 variant SEQ ID NO: 7 fused to rabbit IgG Fc) (Fc fusion)
chain: B4 chain with S67I, Q68N, P69R, G70S
notes: Signal peptide 1-20 left out; also called variant 6; not shown: rabbit IgG Fc (RFc) of vector pcDNA3.4-RFc

The binders below were run against T1, Seq No.1-RFc (wild-type PD-1 fused to rabbit IgG Fc) (human; rabbit, UniProt Q15116 21-155) (assay: SPR, Biacore T200; PD1-RFc mobile phase, antibody stationary phase).
T1 construct: also called PD1-RFc; not shown: rabbit IgG Fc (RFc) of vector pcDNA3.4-RFc

Row | Binder | Kd | koff | kon
1 | B1 | 0.229 nM | 0.000389 s⁻¹ | 1.7e+06 M⁻¹ s⁻¹
2 | B2 | 0.00141 nM | 5.11e-06 s⁻¹ | 3.62e+06 M⁻¹ s⁻¹
3 | B3 | 0.178 nM | 0.00115 s⁻¹ | 6.47e+06 M⁻¹ s⁻¹

The binders below were run against T2, Tilelizumab in the same assay as above.
T2 construct: Biotin-labelled in flow cytometry; also called Tevimbra; Tislelizumab

Row | Binder | Kd | koff | kon
4 | B4 | 0.085 nM | 0.000174 s⁻¹ | 2.05e+06 M⁻¹ s⁻¹
5 | B5 | 1.78 nM | 0.00105 s⁻¹ | 588000 M⁻¹ s⁻¹
6 | B6 | 2.94 nM | 0.00203 s⁻¹ | 691000 M⁻¹ s⁻¹
7 | B7 | 0.567 nM | 0.0003 s⁻¹ | 530000 M⁻¹ s⁻¹
8 | B8 | 0.315 nM | 0.000836 s⁻¹ | 2.66e+06 M⁻¹ s⁻¹
9 | B9 | 0.0492 nM | 0.000109 s⁻¹ | 2.21e+06 M⁻¹ s⁻¹

The binders below were run against B3 (assay: SPR, Biacore T200).

Row | Binder | Kd
10 | B4 | 0.395 nM
